The source of these data is the supplement of paper PMC10567573.

The chains are these.
B1: CDC14A (parent)
chain: LNLAMVYRYCCKLNKKLKSYSLSR
B2: ADAMTS4 (parent)
chain: HVDPEEPWSPCSARFITDFLDNGY
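Also: lentivirally expressed fusions sorted by FACS into six bins by GFP to DsRed ratio, PSI derived from sequencing read proportions per bin multiplied by bin number.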

The variants in one data set derive from B1. The experiment in a line: protein stability index of a GFP-peptide fusion (GPS, HEK-293T) (PSI 1-6); higher = more stable. The note with it: c terminus: a fixed tail appended.
For LNLAMVYRYCCKLNKKSKSYSLSR [L17S], the protein stability index was 2.17.

As to LNLAMVYRYCCKLNKKIKSYSLSR [L17I], the protein stability index amounted to 2.95.

In the case of LNLAMVYRYYCKLNKKLKSYSLSR [C10Y], the protein stability index was 4.25.

In the case of LNLAMVYRYQCKLNKKLKSYSLSR [C10Q], the protein stability index was found to be 2.8.

Take LNLAMVYRYMCKLNKKLKSYSLSR [C10M]: the protein stability index was 2.89.

As to LNLAMVYRYACKLNKKLKSYSLSR [C10A], the protein stability index is 2.41.

Regarding ANLAMVYRYCCKLNKKLKSYSLSR [L1A], the protein stability index came to 2.44.

As for LNLAMAYRYCCKLNKKLKSYSLSR [V6A], the protein stability index stood at 3.5.

For LCLAMVYRYCCKLNKKLKSYSLSR [N2C], the protein stability index turned out to be 3.28.

Turning to LTLAMVYRYCCKLNKKLKSYSLSR [N2T], the protein stability index was 2.24.

Take LILAMVYRYCCKLNKKLKSYSLSR [N2I]: the protein stability index is 2.14.

As for LNLAMVYRYCCKLNAKLKSYSLSR [K15A], the protein stability index turned out to be 2.87.

LNLAMVYRYCCKLNKKLKSLSLSR [Y20L]: the protein stability index is 2.94.

As for LNLAMVYRYCCKLNKKLKSWSLSR [Y20W], the protein stability index worked out at 3.32.

For the variant LNLAMVYRYCCKLNKWLKSYSLSR [K16W], the protein stability index turned out to be 2.81.

In the case of LNLAMVYRYCCKLNKGLKSYSLSR [K16G], the protein stability index worked out at 3.28.

On to LNLAMVYRYCCKLNKKLKSYSLFR [S23F], for which the protein stability index came to 2.69.

As for LNLAMVYRYCCKLNKKLKSYSLTR [S23T], the protein stability index came to 3.09.

With LNLAMVYRYCCKLNKKLKSYSLRR [S23R], the protein stability index was determined as 4.26.

On to LNLAMVYHYCCKLNKKLKSYSLSR [R8H], for which the protein stability index was 4.35.

Take LNLAMVYLYCCKLNKKLKSYSLSR [R8L]: the protein stability index turned out to be 3.17.

As to LNLAMVYEYCCKLNKKLKSYSLSR [R8E], the protein stability index was determined as 2.43.

Take LNLAMVYRYCSKLNKKLKSYSLSR [C11S]: the protein stability index amounted to 3.77.

On to LNLAMVYRYCMKLNKKLKSYSLSR [C11M], for which the protein stability index was 2.74.

On to LNLAMVYRYCVKLNKKLKSYSLSR [C11V], for which the protein stability index is 2.45.

Consider LNLAMVYRYCCKLNKKLKSYALSR [S21A], for which the protein stability index stood at 3.27.

For the variant LNLAMVYRYCCKLNKKLKSYPLSR [S21P], the protein stability index was determined as 3.64.

As for LNLAMVYRYCCKLNKKLKSYELSR [S21E], the protein stability index was 3.12.

As for LNLAMVYRYCCKENKKLKSYSLSR [L13E], the protein stability index worked out at 2.48.

For the variant LNLAMVYRYCCKTNKKLKSYSLSR [L13T], the protein stability index amounted to 2.08.

On to LNLAMVYRYCCKRNKKLKSYSLSR [L13R], for which the protein stability index amounted to 3.08.

Consider LNLAMVYRYCCKPNKKLKSYSLSR [L13P], for which the protein stability index came to 1.2.

For the variant LNLAMVYRYCCKSNKKLKSYSLSR [L13S], the protein stability index amounted to 1.8.

In the case of LNLAMVYRYCCKGNKKLKSYSLSR [L13G], the protein stability index came to 2.49.

Turning to LNHAMVYRYCCKLNKKLKSYSLSR [L3H], the protein stability index was 1.8.

With LNLAMVYRACCKLNKKLKSYSLSR [Y9A], the protein stability index is 2.3.

As for LNLAMVYRKCCKLNKKLKSYSLSR [Y9K], the protein stability index came out at 3.54.

Regarding LNLAMVYRDCCKLNKKLKSYSLSR [Y9D], the protein stability index worked out at 2.91.

LNLAMVYRECCKLNKKLKSYSLSR [Y9E]: the protein stability index is 2.45.

LNLAMVYRYCCKLNKKLKSYSLSH [R24H]: the protein stability index stood at 2.69.

In the case of LNLAMVYRYCCKLNKKLKSYSLSW [R24W], the protein stability index is 3.11.

For the variant LNLAMVYRYCCKLNKKLKSYSLSF [R24F], the protein stability index is 2.97.

Take LNLAMVYRYCCKLNKKLKSYSLSL [R24L]: the protein stability index came to 3.97.

Turning to LNLAMVYRYCCKLNKKLKSYSLSV [R24V], the protein stability index was 3.52.

With LNLAMVYRYCCRLNKKLKSYSLSR [K12R], the protein stability index stood at 2.13.

On to LNLAMVYRYCCFLNKKLKSYSLSR [K12F], for which the protein stability index is 2.18.

As for LNLAMVYRYCCNLNKKLKSYSLSR [K12N], the protein stability index is 2.15.

Turning to LNLAEVYRYCCKLNKKLKSYSLSR [M5E], the protein stability index was 3.

Consider LNLAMVYRYCCKLNKKLKSYSGSR [L22G], for which the protein stability index amounted to 3.46.

Turning to LNLAMVYRYCCKLNKKLKSYSASR [L22A], the protein stability index came out at 4.08.

Turning to LNLAMVYRYCCKLNKKLPSYSLSR [K18P], the protein stability index worked out at 2.5.

On to LNLAMVVRYCCKLNKKLKSYSLSR [Y7V], for which the protein stability index was found to be 3.72.

In the case of LNLAMVCRYCCKLNKKLKSYSLSR [Y7C], the protein stability index was determined as 2.73.

In the case of LNLAMVYRYCCKLQKKLKSYSLSR [N14Q], the protein stability index was determined as 4.32.

With LNLAMVYRYCCKLSKKLKSYSLSR [N14S], the protein stability index turned out to be 2.35.

Consider LNLAMVYRYCCKLDKKLKSYSLSR [N14D], for which the protein stability index was 2.8.

As for LNLAMVYRYCCKLGKKLKSYSLSR [N14G], the protein stability index was 3.52.

LNLAMVYRYCCKLNKKLKMYSLSR [S19M]: the protein stability index stood at 3.69.

Turning to LNLQMVYRYCCKLNKKLKSYSLSR [A4Q], the protein stability index is 4.07.

Regarding LNLPMVYRYCCKLNKKLKSYSLSR [A4P], the protein stability index came out at 3.19.

LNLHMVYRYCCKLNKKLKSYSLSR [A4H]: the protein stability index stood at 3.55.

Take LNLYMVYRYCCKLNKKLKSYSLSR [A4Y]: the protein stability index worked out at 2.91.

Variants of B2 are the subject of a further data set. The description is as above. The settings on record: c terminus: a fixed tail appended.
Consider HVDPEEPWSPCSARFITDFLDIGY [N22I], for which the protein stability index was 2.52.

Take HVDPEEPWSPCSARFITDFLDSGY [N22S]: the protein stability index is 1.47.

HVDPEEPWSPCSARFITDFLDDGY [N22D]: the protein stability index turned out to be 1.88.

On to HVDPEEPWSPCSARFITDFLDGGY [N22G], for which the protein stability index came to 2.07.

With HVDPEEPWSPCSARFITDFLDFGY [N22F], the protein stability index worked out at 1.85.

Consider HVDPEEPWSPCSARFITDFLDHGY [N22H], for which the protein stability index was determined as 1.62.

In the case of HVDPEEPWSPCSARFITDFLDMGY [N22M], the protein stability index stood at 1.92.

On to HVDPEEPWSPCSARFITDFLDKGY [N22K], for which the protein stability index amounted to 1.57.

HVDPEEPWSPCSARFITDFLDYGY [N22Y]: the protein stability index came out at 1.78.

As to HVDPEEPWSPCSARFITDFLDQGY [N22Q], the protein stability index was determined as 2.09.

On to HVDPEEPWSPCSARFITDFLDCGY [N22C], for which the protein stability index came out at 2.35.

Consider HVDPEEPWSPCSARFITDFLDWGY [N22W], for which the protein stability index stood at 1.3.

In the case of HVDPEEPWSPCSARFITDFLDEGY [N22E], the protein stability index was determined as 2.19.

With HVDPEEPWSPCSARFITDFLDPGY [N22P], the protein stability index amounted to 2.09.

On to HVDPEEPWSPCSARFITDFLDVGY [N22V], for which the protein stability index was determined as 1.94.

On to HVDPEEPWSPCSARFITDFLDRGY [N22R], for which the protein stability index is 1.7.

Regarding HVDPEEPWSPCSARFITDFLDAGY [N22A], the protein stability index is 1.8.

With HVDPEEPWSPCSARFITDFLDLGY [N22L], the protein stability index was 1.71.

HVDPEEPWSPCSARFITDFLDTGY [N22T]: the protein stability index is 1.46.

Consider HVDPEEPWSPCSARFITDFLDNGE [Y24E], for which the protein stability index was 2.01.

Consider HVDPEEPWSPCSARFITDFLDNGM [Y24M], for which the protein stability index was found to be 2.07.

HVDPEEPWSPCSARFITDFLDNGK [Y24K]: the protein stability index came to 1.94.

As for HVDPEEPWSPCSARFITDFLDNGL [Y24L], the protein stability index came out at 1.84.

As to HVDPEEPWSPCSARFITDFLDNGR [Y24R], the protein stability index worked out at 1.96.

Turning to HVDPEEPWSPCSARFITDFLDNGH [Y24H], the protein stability index worked out at 1.9.

For the variant HVDPEEPWSPCSARFITDFLDNGQ [Y24Q], the protein stability index was determined as 2.1.

Regarding HVDPEEPWSPCSARFITDFLDNGP [Y24P], the protein stability index was found to be 1.92.

Consider HVDPEEPWSPCSARFITDFLDNGT [Y24T], for which the protein stability index was 2.

Take HVDPEEPWSPCSARFITDFLDNGG [Y24G]: the protein stability index was determined as 2.36.

Consider HVDPEEPWSPCSARFITDFLDNGC [Y24C], for which the protein stability index stood at 1.39.

On to HVDPEEPWSPCSARFITDFLDNGD [Y24D], for which the protein stability index turned out to be 1.75.

Take HVDPEEPWSPCSARFITDFLDNGW [Y24W]: the protein stability index amounted to 1.64.
